Measurements from paper PMC3405546 (Circulation Research, 2012).

What was measured:
[1] = molecular target: glutathione s-transferase (GST) tagged cyclin E (human, UniProt P24864 1-410); test: cross-linking
[2] = molecular target: the molecule itself; test: cross-linking

Chain of glutathione s-transferase (GST) tagged cyclin E (P24864 whole entry): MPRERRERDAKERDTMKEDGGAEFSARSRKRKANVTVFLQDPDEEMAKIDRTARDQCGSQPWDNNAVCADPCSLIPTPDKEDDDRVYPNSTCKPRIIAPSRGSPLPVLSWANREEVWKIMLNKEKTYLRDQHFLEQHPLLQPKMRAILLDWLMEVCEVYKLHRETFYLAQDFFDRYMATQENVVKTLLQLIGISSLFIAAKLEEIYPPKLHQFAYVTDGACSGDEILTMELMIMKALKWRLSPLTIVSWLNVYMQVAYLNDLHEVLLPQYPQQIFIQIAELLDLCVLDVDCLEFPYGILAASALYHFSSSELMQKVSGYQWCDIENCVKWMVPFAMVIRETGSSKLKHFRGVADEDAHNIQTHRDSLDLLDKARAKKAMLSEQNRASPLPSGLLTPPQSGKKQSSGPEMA

stoichiometry N [1]: 2 Cx43^CTMK4D per cyclin E
B1: Cx43^CTMK4D (Cx43 C-terminus, phospho-mimetic Ser>Asp), purified (domain or fragment, rat, UniProt P08050 236-382, looked up)
chain: VKDRVKGRSDPYHATTGPLDPSKDCGDPKYAYFNGCSSPTAPLDPMDPPGYKLVTGDRNNSSCRNYNKQASEQNWANYSAEQNRMGQAGSTISNSHAQPFDFPDDNQNAKKVAAGHELQPLAIVDQRPSSRASSRASSRPRPDDLEI
stoichiometry N [2]: 2
